# Results published in patent US20220143024A1, “METHODS OF USING IMIPRIDONES” (Board of Regents, The University of Texas System, priority 2019, published 2022).
# Columns and labels:
# Experiment in all cases: BioID-MS
# IDI1 (human) = IDI1 (human) (UniProt Q13907)
# MTHFD1L (human) = MTHFD1L (human) (UniProt Q6UB35)
# AIFM1 (human) = AIFM1 (human) (UniProt O95831)
# ECHS1 (human) = ECHS1 (human) (UniProt P30084)
# PNPT1 (human) = PNPT1 (human) (UniProt Q8TCS8)
# ATPAF1 (human) = ATPAF1 (human) (UniProt Q5TC12)
# NIPSNAP2 (human) = NIPSNAP2 (human) (UniProt O75323)
# ETFB (human) = ETFB (human) (UniProt P38117)
# NDUFAF7 (human) = NDUFAF7 (human) (UniProt Q7L592)
# DCAKD (human) = DCAKD (human) (UniProt Q8WVC6)
# NDUFA12 (human) = NDUFA12 (human) (UniProt Q9UI09)
# ALDH1L2 (human) = ALDH1L2 (human) (UniProt Q3SY69)
# MRPL12 (human) = MRPL12 (human) (UniProt P52815)
# POLG (human) = POLG (human) (UniProt P54098)
# CRAT (human) = CRAT (human) (UniProt P43155)
# ABHD10 (human) = ABHD10 (human) (UniProt Q9NUJ1)
# MTRF1 (human) = MTRF1 (human) (UniProt O75570)
# MRPL46 (human) = MRPL46 (human) (UniProt Q9H2W6)
# TFAM (human) = TFAM (human) (UniProt Q00059)
# MICU2 (human) = MICU2 (human) (UniProt Q8IYU8)
# SFXN4 (human) = SFXN4 (human) (UniProt Q6P4A7)
# DHTKD1 (human) = DHTKD1 (human) (UniProt Q96HY7)
# LYRM4 (human) = LYRM4 (human) (UniProt Q9HD34)
# HSPE1 (human) = HSPE1 (human) (UniProt P61604)
# HIBCH (human) = HIBCH (human) (UniProt Q6NVY1)
# K1AA0564 (human) = K1AA0564 (human) (UniProt A3KMH1)
# HSPA1L (human) = HSPA1L (human) (UniProt P34931)
# NFUl (human) = NFUl (human) (UniProt Q9UMS0)
# NDUFA7 (human) = NDUFA7 (human) (UniProt O95182)
# LYRM7 (human) = LYRM7 (human) (UniProt Q5U5X0)
# FASTKD2 (human) = FASTKD2 (human) (UniProt Q9NYY8)
# CLIC4 (human) = CLIC4 (human) (UniProt Q9Y696)
# C20orf72 (human) = C20orf72 (human) (UniProt Q9BQP7)
# NDUFS6 (human) = NDUFS6 (human) (UniProt O75380)
# ERAL1 (human) = ERAL1 (human) (UniProt O75616)
# PET112 (human) = PET112 (human) (UniProt O75879)
# ACO2 (human) = ACO2 (human) (UniProt Q99798)
# COQ6 (human) = COQ6 (human) (UniProt Q9Y2Z9)
# PTPMT1 (human) = PTPMT1 (human) (UniProt Q8WUK0)
# BCKDHB (human) = BCKDHB (human) (UniProt P21953)
# NDUFAF3 (human) = NDUFAF3 (human) (UniProt Q9BU61)
# HADH (human) = HADH (human) (UniProt Q16836)
# ACN9 (human) = ACN9 (human) (UniProt Q9NRP4)
# PDIA3 (human) = PDIA3 (human) (UniProt P30101)
# SLIRP (human) = SLIRP (human) (UniProt Q9GZT3)
# THNSL1 (human) = THNSL1 (human) (UniProt Q8IYQ7)
# IDE (human) = IDE (human) (UniProt P14735)
# NARS2 (human) = NARS2 (human) (UniProt Q96I59)
# MRPL54 (human) = MRPL54 (human) (UniProt Q6P161)
# HSD17B8 (human) = HSD17B8 (human) (UniProt Q92506)
# OXCT1 (human) = OXCT1 (human) (UniProt P55809)
# MTPAP (human) = MTPAP (human) (UniProt Q9NVV4)
# PDPR (human) = PDPR (human) (UniProt Q8NCN5)
# SDHA (human) = SDHA (human) (UniProt P31040)
# CPOX (human) = CPOX (human) (UniProt P36551)
# EARS2 (human) = EARS2 (human) (UniProt Q5JPH6)
# OXA1L (human) = OXA1L (human) (UniProt Q15070)
# ACAT1 (human) = ACAT1 (human) (UniProt P24752)
# NDUFA7 (human), sequence (O95182 2-113 limits assumed): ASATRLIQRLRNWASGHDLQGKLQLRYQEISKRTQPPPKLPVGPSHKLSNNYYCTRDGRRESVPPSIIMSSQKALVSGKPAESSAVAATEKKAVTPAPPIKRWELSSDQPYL
# DHTKD1 (human), sequence (Q96HY7 whole entry): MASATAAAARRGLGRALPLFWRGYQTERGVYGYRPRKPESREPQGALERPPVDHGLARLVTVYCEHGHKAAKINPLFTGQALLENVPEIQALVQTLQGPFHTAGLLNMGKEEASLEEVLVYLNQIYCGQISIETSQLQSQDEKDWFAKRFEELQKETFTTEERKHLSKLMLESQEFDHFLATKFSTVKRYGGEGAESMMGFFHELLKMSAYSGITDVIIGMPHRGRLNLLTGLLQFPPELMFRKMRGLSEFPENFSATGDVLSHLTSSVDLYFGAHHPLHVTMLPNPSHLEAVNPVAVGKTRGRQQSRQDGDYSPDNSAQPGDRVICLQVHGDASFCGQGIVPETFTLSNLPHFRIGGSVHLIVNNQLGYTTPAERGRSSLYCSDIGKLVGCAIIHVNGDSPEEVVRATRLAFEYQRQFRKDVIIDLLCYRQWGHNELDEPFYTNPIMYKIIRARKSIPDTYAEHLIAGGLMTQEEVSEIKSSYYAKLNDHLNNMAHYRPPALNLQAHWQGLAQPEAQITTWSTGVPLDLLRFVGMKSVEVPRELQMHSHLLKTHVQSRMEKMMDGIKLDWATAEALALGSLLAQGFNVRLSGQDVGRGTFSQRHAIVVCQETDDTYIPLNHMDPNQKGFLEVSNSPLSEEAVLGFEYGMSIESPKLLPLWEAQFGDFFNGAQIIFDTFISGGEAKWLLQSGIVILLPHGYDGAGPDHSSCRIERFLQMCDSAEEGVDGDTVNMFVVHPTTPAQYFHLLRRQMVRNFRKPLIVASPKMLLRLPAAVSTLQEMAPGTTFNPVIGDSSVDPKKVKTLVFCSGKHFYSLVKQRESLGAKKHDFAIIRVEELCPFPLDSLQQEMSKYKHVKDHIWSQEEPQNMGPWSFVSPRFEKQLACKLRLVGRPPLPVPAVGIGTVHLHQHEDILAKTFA
# PTPMT1 (human), sequence (Q8WUK0 28-201 limits assumed): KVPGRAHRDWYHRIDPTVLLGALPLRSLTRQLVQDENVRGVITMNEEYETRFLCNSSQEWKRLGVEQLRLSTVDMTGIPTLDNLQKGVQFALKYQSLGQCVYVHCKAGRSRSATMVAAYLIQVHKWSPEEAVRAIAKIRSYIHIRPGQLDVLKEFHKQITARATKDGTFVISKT
# ETFB (human), sequence (P38117 2-255 limits assumed): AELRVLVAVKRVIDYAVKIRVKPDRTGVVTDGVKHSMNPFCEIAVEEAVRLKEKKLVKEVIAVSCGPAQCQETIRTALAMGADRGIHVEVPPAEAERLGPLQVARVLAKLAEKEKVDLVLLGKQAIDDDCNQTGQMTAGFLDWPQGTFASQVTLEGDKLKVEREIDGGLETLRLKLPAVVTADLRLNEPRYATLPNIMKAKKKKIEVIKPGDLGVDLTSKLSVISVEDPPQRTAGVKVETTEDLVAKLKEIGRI
# ATPAF1 (human), sequence (Q5TC12 58-328 limits assumed): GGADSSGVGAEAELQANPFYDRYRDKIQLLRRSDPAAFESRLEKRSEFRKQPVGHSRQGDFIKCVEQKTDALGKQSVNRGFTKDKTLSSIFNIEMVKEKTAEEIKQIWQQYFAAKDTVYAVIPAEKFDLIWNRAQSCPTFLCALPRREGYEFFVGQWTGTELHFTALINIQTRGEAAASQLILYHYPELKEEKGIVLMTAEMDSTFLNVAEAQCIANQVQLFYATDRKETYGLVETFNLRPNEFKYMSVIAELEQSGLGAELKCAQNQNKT
# PDPR (human), sequence (Q8NCN5 28-879 limits assumed): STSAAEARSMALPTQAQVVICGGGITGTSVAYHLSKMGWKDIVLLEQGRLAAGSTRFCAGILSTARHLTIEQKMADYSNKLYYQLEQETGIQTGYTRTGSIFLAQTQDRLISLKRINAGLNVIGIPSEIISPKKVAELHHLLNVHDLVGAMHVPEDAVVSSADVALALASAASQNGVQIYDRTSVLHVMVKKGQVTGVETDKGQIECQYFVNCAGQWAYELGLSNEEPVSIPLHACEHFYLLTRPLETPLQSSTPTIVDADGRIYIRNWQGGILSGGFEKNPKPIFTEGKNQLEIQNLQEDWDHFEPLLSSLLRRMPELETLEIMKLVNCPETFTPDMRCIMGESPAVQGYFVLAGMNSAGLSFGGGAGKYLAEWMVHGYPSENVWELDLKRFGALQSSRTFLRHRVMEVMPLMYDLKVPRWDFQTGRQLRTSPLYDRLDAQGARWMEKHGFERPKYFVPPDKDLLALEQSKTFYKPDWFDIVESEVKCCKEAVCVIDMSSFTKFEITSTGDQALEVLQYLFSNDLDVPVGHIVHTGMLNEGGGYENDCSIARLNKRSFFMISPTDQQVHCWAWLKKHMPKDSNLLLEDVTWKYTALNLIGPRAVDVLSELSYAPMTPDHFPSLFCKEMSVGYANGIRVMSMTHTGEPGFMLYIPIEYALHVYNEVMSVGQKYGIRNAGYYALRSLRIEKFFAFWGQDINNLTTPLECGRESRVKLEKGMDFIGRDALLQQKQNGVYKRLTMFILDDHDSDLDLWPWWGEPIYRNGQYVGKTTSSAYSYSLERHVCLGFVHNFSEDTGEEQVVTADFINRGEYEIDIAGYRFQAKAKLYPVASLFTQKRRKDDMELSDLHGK
# POLG (human), sequence (P54098 whole entry): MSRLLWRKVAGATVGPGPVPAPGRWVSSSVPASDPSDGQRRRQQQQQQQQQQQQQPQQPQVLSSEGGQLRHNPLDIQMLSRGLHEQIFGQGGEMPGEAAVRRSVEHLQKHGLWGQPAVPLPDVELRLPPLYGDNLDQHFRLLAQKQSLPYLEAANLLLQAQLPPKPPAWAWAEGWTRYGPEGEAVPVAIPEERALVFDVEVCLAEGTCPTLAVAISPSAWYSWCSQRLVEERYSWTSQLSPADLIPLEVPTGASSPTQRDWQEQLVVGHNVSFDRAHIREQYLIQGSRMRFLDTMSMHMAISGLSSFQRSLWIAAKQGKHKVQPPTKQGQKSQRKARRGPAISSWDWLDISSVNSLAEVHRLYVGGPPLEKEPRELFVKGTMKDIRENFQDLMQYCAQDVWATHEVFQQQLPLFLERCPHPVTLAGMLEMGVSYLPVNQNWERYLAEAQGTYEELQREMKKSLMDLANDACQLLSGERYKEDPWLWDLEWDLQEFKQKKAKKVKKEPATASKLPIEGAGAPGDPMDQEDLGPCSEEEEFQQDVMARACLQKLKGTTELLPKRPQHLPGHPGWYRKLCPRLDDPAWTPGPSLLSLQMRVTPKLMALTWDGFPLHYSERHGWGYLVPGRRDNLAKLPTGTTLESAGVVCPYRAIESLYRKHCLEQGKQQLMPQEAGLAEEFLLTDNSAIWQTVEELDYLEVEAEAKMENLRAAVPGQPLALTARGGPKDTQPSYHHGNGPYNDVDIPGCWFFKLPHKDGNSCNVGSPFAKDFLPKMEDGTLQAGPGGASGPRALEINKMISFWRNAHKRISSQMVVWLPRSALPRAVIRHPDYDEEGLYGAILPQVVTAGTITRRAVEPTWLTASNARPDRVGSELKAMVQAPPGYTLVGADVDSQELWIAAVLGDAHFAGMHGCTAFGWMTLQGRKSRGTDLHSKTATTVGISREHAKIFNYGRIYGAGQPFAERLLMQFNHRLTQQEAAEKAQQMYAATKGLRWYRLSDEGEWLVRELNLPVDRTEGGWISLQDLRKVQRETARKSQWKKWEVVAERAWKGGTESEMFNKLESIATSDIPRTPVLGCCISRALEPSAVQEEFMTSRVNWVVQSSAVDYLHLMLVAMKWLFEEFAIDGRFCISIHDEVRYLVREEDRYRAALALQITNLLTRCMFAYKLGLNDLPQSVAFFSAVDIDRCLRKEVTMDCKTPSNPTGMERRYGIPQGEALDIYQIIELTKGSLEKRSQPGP
# NFUl (human), sequence (Q9UMS0 10-254 limits assumed): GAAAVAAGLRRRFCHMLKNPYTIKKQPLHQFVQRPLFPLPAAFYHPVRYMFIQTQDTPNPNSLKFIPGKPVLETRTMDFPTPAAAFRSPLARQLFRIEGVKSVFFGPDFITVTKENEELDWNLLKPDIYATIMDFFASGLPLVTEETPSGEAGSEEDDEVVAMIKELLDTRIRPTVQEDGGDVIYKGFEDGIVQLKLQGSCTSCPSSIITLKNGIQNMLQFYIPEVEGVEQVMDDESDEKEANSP
# MICU2 (human), sequence (Q8IYU8 23-434 limits assumed): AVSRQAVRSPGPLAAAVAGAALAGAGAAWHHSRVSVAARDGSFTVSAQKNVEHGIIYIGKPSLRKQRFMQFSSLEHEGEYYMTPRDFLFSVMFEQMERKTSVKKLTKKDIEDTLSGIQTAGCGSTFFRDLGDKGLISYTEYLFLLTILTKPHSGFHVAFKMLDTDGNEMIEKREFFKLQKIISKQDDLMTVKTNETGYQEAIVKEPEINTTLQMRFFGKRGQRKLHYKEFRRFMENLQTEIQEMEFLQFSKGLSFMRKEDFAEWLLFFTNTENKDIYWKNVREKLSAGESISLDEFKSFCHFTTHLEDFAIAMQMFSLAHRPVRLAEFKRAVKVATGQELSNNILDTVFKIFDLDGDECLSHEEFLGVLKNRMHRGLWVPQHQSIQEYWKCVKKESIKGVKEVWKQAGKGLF
# COQ6 (human), sequence (Q9Y2Z9 29-468 limits assumed): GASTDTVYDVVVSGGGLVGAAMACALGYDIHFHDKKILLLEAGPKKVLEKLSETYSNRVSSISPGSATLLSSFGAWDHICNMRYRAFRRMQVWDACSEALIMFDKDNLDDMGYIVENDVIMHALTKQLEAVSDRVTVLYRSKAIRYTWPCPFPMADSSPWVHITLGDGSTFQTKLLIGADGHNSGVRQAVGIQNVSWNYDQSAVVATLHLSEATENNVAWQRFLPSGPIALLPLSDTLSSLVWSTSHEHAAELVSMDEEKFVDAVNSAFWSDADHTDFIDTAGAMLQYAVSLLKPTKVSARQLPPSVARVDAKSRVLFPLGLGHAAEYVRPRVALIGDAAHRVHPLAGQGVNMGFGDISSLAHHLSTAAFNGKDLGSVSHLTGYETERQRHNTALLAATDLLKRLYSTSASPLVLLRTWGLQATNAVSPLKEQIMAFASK
substance,measurement,setting,value
FlagBirA-ClpP (Y118A) (from UniProt P06709 1-321; Q16740 57-277) (enzyme),Log2 Fold change (vs control),IDI1 (human),1.28 log2
same,Log2 Fold change (vs control),MTHFD1L (human),0.25 log2
same,Log2 Fold change (vs control),AIFM1 (human),-2.32 log2
same,Log2 Fold change (vs control),ECHS1 (human),-0.33 log2
same,Log2 Fold change (vs control),PNPT1 (human),-0.07 log2
same,Log2 Fold change (vs control),ATPAF1 (human),0.59 log2
same,Log2 Fold change (vs control),NIPSNAP2 (human),0.61 log2
same,Log2 Fold change (vs control),ETFB (human),0.4 log2
same,Log2 Fold change (vs control),NDUFAF7 (human),0.04 log2
same,Log2 Fold change (vs control),DCAKD (human),-3.75 log2
same,Log2 Fold change (vs control),NDUFA12 (human),-1.02 log2
same,Log2 Fold change (vs control),ALDH1L2 (human),-0.69 log2
same,Log2 Fold change (vs control),MRPL12 (human),0.21 log2
same,Log2 Fold change (vs control),POLG (human),0.26 log2
same,Log2 Fold change (vs control),CRAT (human),-3 log2
same,Log2 Fold change (vs control),ABHD10 (human),-0.16 log2
same,Log2 Fold change (vs control),MTRF1 (human),-1.44 log2
same,Log2 Fold change (vs control),MRPL46 (human),-0.28 log2
same,Log2 Fold change (vs control),TFAM (human),0.63 log2
same,Log2 Fold change (vs control),MICU2 (human),-0.18 log2
same,Log2 Fold change (vs control),SFXN4 (human),-0.38 log2
same,Log2 Fold change (vs control),DHTKD1 (human),-0.12 log2
same,Log2 Fold change (vs control),LYRM4 (human),0.52 log2
same,Log2 Fold change (vs control),HSPE1 (human),0.92 log2
same,Log2 Fold change (vs control),HIBCH (human),0.35 log2
same,Log2 Fold change (vs control),K1AA0564 (human),0.29 log2
same,Log2 Fold change (vs control),HSPA1L (human),-0.71 log2
same,Log2 Fold change (vs control),NFUl (human),-0.32 log2
same,Log2 Fold change (vs control),NDUFA7 (human),-2.22 log2
same,Log2 Fold change (vs control),LYRM7 (human),0.23 log2
same,Log2 Fold change (vs control),FASTKD2 (human),0.71 log2
same,Log2 Fold change (vs control),CLIC4 (human),-2.81 log2
same,Log2 Fold change (vs control),C20orf72 (human),0.12 log2
same,Log2 Fold change (vs control),NDUFS6 (human),-0.26 log2
same,Log2 Fold change (vs control),ERAL1 (human),-1.33 log2
same,Log2 Fold change (vs control),PET112 (human),-0.3 log2
same,Log2 Fold change (vs control),ACO2 (human),-0.29 log2
same,Log2 Fold change (vs control),COQ6 (human),0.62 log2
same,Log2 Fold change (vs control),PTPMT1 (human),-0.04 log2
same,Log2 Fold change (vs control),BCKDHB (human),0.79 log2
same,Log2 Fold change (vs control),NDUFAF3 (human),0.46 log2
same,Log2 Fold change (vs control),HADH (human),0.8 log2
same,Log2 Fold change (vs control),ACN9 (human),-2.14 log2
same,Log2 Fold change (vs control),PDIA3 (human),-0.41 log2
same,Log2 Fold change (vs control),SLIRP (human),0.25 log2
same,Log2 Fold change (vs control),THNSL1 (human),0.03 log2
same,Log2 Fold change (vs control),IDE (human),-0.15 log2
same,Log2 Fold change (vs control),NARS2 (human),-0.14 log2
same,Log2 Fold change (vs control),MRPL54 (human),-3 log2
same,Log2 Fold change (vs control),HSD17B8 (human),-2.58 log2
same,Log2 Fold change (vs control),OXCT1 (human),-0.95 log2
same,Log2 Fold change (vs control),MTPAP (human),-0.78 log2
same,Log2 Fold change (vs control),PDPR (human),0.09 log2
same,Log2 Fold change (vs control),SDHA (human),0.34 log2
same,Log2 Fold change (vs control),CPOX (human),0.88 log2
same,Log2 Fold change (vs control),EARS2 (human),-0.17 log2
same,Log2 Fold change (vs control),OXA1L (human),-1 log2
same,Log2 Fold change (vs control),ACAT1 (human),-0.01 log2
